Measurements reported in PMC8277577 (Nature, 2021).

B1: C010 (antibody, V domains shown)
VH: EVQLVESGGGVVQPGRSLRLSCAASGFTFSSYAMHWVRQAPAKGLEWVAVILYDGSGKYYADSVKGRFTISRDNSKNTLYLQMNSLRAEDTAVYYCARDGIVDTALVTWFDYWGQGTLVTVSS
VL: not shown
notes: source: recombinant, purified
B2: C937 (antibody, V domains shown)
VH: EVQLVESGGGLIQPGGSLRLSCAASELTVSSNYMSWVRQAPGKGLEWVSVIYPGGSTFYADSVKGRFTISRDNSKNTLYLQMNSLRAEDTAVYYCARDLGTGLFDYWGQGTLVTVSS
VL: DIQLTQSPSFLSASVGDRVTITCRASQGISSYLAWYQQKPGKAPKLLIYAASTLQSGVPSRFSGSGSGTEFTLTISSLQPEDFATYFCQLLNSNPPGTFGPGTKVDIK
notes: source: recombinant, purified
B3: C517 (antibody, V domains shown)
VH: EVQLVESGGGLVQPGGSLRLSCAASEFIVSRNYMSWVRQAPGKGLEWVSLIYSGGSTYYADSVKGRFTISRDNSKNTLYLQMNSLRAEDTAMYYCARDIAGRLDYWGQGTLVTVSS
VL: DIQMTQSPSSLSASVGDRVTITCQASQDISKYLNWYQQKPGKAPKLLIYDASNLETGVPSRFSGSGSGTDFTFTISSLQPEDFATYYCQHYDSLSRLTFGGGTKVEIK
notes: source: recombinant, purified
B4: C1002 (antibody, V domains shown)
VH: EVQLVESGGGLVQPGGSLRLSCAASEFIVSSNYMTWVRQAPGKGLEWVSIMYPGGSTFYADSVKGRFTISRDNSKNTLYLQINRLRAEDTAVYYCARDIAGRLDYWGQGTLVTVSS
VL: DIQMTQSPSSLSASVGDRVTITCQASQDINNYLNWYQQKPGKAPKLLIYDASNLETGVPSRFSGSGSGTDFSFTISSLQPEDIATYYCQQYDNLSRLTFGGGTKVEIK
notes: source: recombinant, purified
B5: C934 (antibody, V domains shown)
VH: QVQLVQSGAEVKKPGASVKVSCKASGYTFTDYYIHWVRQAPGQGLEWMGWINPNSGGTNYAQKFQGRVTMTRDTSISTAYMDLSRLRSDDTAVYYCARDVIITMGRGVVFRMDVWGQGTTVTVSS
VL: not shown
notes: source: recombinant, purified
B6: C1003 (antibody, V domains shown)
VH: QVQLVESGGGVVQPGRSLRLSCAASGFAFSSYGMNWVRQAPGKGLEWVTTVSSDGNVNYYIDSVKGRFTISRDNSKNTLYLQMNSLRGDDTAVYYCAKGPRFGWSYRGGSGFDIWGQGTMVTVSS
VL: DIQMTQSPSSLSASVGDRVTITCQASQDISNYLNWYQQKPGKAPKLLIYDASNLETGVPSRFSGSGSGTDFTFTITSLQPEDIATYYCQQYDNLPITFGQGTRLEIK
notes: source: recombinant, purified
B7: C871 (antibody, V domains shown)
VH: EVQLVESGGGLIQTGGSLKLSCAASGFIVTNNYMSWVRQAPGKGLEWVSVIYSGGTTYYADSVKGRFTISRDISKNTLYLQMNSLKAEDTAVYYCAREGDVEGISDSWSGYSRDRYYFDHWGQGTLVTVSS
VL: QSALTQPASVSGSPGQSITISCTGTSSDVGGYNYVSWYQQHPGKAPKLMIYDVSNRPPTISNRFSGSKSGNTASLIISGLQPEDEADYYCSSFTSNNTRVFGTGTKVTVL
notes: source: recombinant, purified
B8: C929 (antibody, V domains shown)
VH: EVQLVESGGGLIQPGGSLRLSCAASGFTVSSNYMTWVRQAPGKGLEWVSVIYSGGTTYYADSVKGRFTISRDNSKNTLYLQMNSLRAEDTAVYYCARDLVVWGMDVWGQGTTVTVSS
VL: DIQLTQSPSFLSASVGDRVTITCRASQGISSYLAWYQQKPGKAPKLLIYAASTLQSGVPSRFSGSGSGTEFTLTISSLQPEDFATYYCQLLNSYPYTFGQGTKLEIK
notes: source: recombinant, purified
B9: C840 (antibody, V domains shown)
VH: QVQLVESGGGVVQPGRSLRLSCEASGFTFTAYAMHWLRQAPGKGLEWVAVILNDGSNKLYADSVKGRFTVSRDNSKNMLYLQVNSLRVDDTAVYYCARDGSVDTLMVTWFDYWGQGTLVTVSS
VL: DIQMTQSPSSLSASVGDRVTITCRASQSVNNYLNWYQQKPGQAPKLLIYAASSLQSGVPLRFSGSGSGTDFALTITSLHTEDFATYYCQQSYNTPPWTFGPGTKVEIK
notes: source: recombinant, purified
B10: C930 (antibody, V domains shown)
VH: EVQLVESGGGLFQPGGSLRLACAASGITVSSNYMSWVRQPPGKGLEWVSVIYAGGSTFYADSVKGRLTISRDNSKNTLYLQINSLRAEDTAVYYCARDLVVWGMDVWGQGTTVTVSS
VL: DIQLTQSPSFLSASVGDRVTITCRASQGISSYLAWYQQKPGKAPKLLIYAASTLQSGVPSRFSGSGSGTEFTLTISSLQPEDFATYYCQQLNTYPYTFGQGTKLEIK
notes: source: recombinant, purified
B11: C888 (antibody, V domains shown)
VH: EVQLVESGGGLVQPGGSLRLSCAASGFTVSSNYMSWVRQAPGKGLEWVSVIYSGGSAYYADSVKGRFTISRDNSKNTLYLQMNSLRAEDTAVYYCARDLRDQDGYSYGAFDYWGQGTLVTVSS
VL: QSALTQPASVSGSPGQSITISCTGTSSDVGGYNYVSWYQQHPGKAPKLMIYDVSNRPSGVSNRFSGSKSGNTASLTISGLQAEDEADYYCSSYTSSSSWVFGGGTKLTVL
notes: source: recombinant, purified
B12: C889 (antibody, V domains shown)
VH: EVQLVESGGGLVQPGGSLRLSCAVSGFTVSSNYMTWVRQAPGKGLEWVSLIYSGTSAFYADSVKGRFTISRDNSKNTLYLQMSSLRVNDTAIYYCARDLRKDDGYSYGAFDYWGQGTLVTVSS
VL: QSALTQPASVSGSPGQSITISCSGTSSDVGAHNYVSWYQQYPGKAPKLMIFDVTDRPSGVSNRFSGSKSGNTASLTISGLQAEDEADYYCTSYTTNRSWVFGGGTKVTVL
notes: source: recombinant, purified
B13: C153 (antibody, V domains shown)
VH: EVQLVESGGGLIQPGGSLRLSCAASGFTVSSNYMSWVRQAPGKGLEWVSVIYSGYSTYYVDSVKGRFTISRDNSKNTLYLQMNSLRAEDTAVYYCARVGGAHSGYDGSFDYWGQGTLVTVSS
VL: QSALTQPASVSGSPGQSITISCTGTSSDVGSYNLVSWYQQHPGKAPKLMIYEGSKRPSGVSNRFSGSKSGNTASLTISGLQAEDEADYYCCSYAGSSTWVFGGGTKLTVL
notes: source: recombinant, purified
B14: C881 (antibody, V domains shown)
VH: EVQLVESGGGLIQPGGSLRLSCAVSGVAVSTNYMSWVRQAPGQGLEWVSTIYSGDTTYYSDSVKGRFTISRDNSKNTFYLQMNSLRVPDTAVYYCARLGGVFNGFNGSFDYWGQGTLVTVS
VL: QSALTQPASVSGSPGQSITISCIGTSSDFENYNLVSWYQQHPGKAPKVMIYEDTKRPSGVSNRFSGSKSANTASLTISGLQAEDEAEYYCCSYAGASTWVFGGGTRVTVV
notes: source: recombinant, purified
B15: C032 (antibody, V domains shown)
VH: EVQLVQSGAEVKKPGESLKISCKGSGYSFTSYWIGWVRQMPGKGLEWMGIIYPGDSDTRYSPSFQGQVTISADKSISTAYLQWSSLKASDTAMYYCARGVAVDWYFDLWGRGTLVTVSS
VL: QSVLTQPPSVSGAPGQRVTISCTGSSSNIGAGYDVHWYQQLPGTAPKLLIYGNSNRPSGVPDRFSGSKSGTSASLAITGLQAEDEADYYCQSYDSSLSALYVFGTGTKVTVL
notes: source: recombinant, purified
B16: C952 (antibody, V domains shown)
VH: EVQLVQSGAEVKKPGESLTISCKDSGNSFTIYWIGWVRQMPGKGLEWMGMIYPGDSGTRYSPSFEGQVTISADESINTAYLQWRSLKASDTAMYYCVRGIAVDWYFDLWGRGTLVTVSS
VL: QSVLTQPPSVSGAPGQRVTISCTGSSSNIGAGFDVHWYQQLPGTAPKLLIYGNNNRPSGVPDRFSGSKSATSASLAITGLQAEDEADYYCQSSDSSLSGLYVFGTGTNVIV
notes: source: recombinant, purified
B17: C1008 (antibody, V domains shown)
VH: EVQLVESGGGLIQPGGSLRLSCAASGFTVSSNYMSWVRQAPGKGLEWVSVIYSGGSTYYADSVKGRFTISRDNSKNTLYLQMNSLRAEDTAVYYCARVVGYDFWSGYDGGYFDYWGQGTLVTVSS
VL: QSALTQPASVSGSPGQSITISCTGTSSDVGSYNLVSWYQQHPGKAPKLMIYEVSKRPSGVSNRFSGSKSGNTASLTISGLQAEDEADYYCCSYAGSSTWVFGGGTKLTVL
notes: source: recombinant, purified
B18: C1009 (antibody, V domains shown)
VH: EVQLVESGGGLLQPGGSLRLSCAASGFSVSSNYMTWVRQAPGKGLEWVAAIYSGDSTYYVDSVKGRFIISRDNSKNTVYLHLSSLRAEDTAVYYCARLVGYDFRSGSDGGYFDYWGHGTLVTVSS
VL: QSALTQPASVSGSPGQSITISCTGTSSDIGNYNLVSWYQQHPGKAPKLMIYDVSKRPSGVSNRFSGSKSGNTASLTISGLQAEDETDYYCCSYAGSSTWVFGGGTKLTVL
notes: source: recombinant, purified
B19: C108 (antibody, V domains shown)
VH: QVQLQESGPGLVKPSGTLSLTCAVSGGSISSTNWWSWVRQPPGKGLEWIGEIYHTGSTNYNPSLKSRVTISVDKSKNQFSLKLSSVTAADTAVYYCVRDGGRPGDAFDIWGQGTMVTVSS
VL: QSALTQPASVSGSPGQSITISCTGTSSDVGGYNYVSWYQQHPGKAPKLMIYDVSNRPSGVSNRFSGSKSGNTASLTISGLQAEDEADYYCNSYTSSSTRVFGTGTKVTVL
notes: source: recombinant, purified
B20: C951 (antibody, V domains shown)
VH: QVQLQESGPRLVKPSGTLSLTCAVSGGSISTTNWWSWVRQPPGKGLEWIGEIHHSGNTNYNPSLKSRVTISVDRSKNQFSLKLSSVTAADTAVYFCARDGGRPGDPFDIWGQGTMVTVSS
VL: QSALTQPASVSGSPGQSITISCTGTSSDVGGYNYVSWYQQHPGKAPNLMIYDVSDRPSGVSNRFSGSKSGNTASLTISGLQAEDEADYYCNSFTSNSTRVFGTGTKVTV
notes: source: recombinant, purified
B21: C953 (antibody, V domains shown)
VH: QVQLVQSGAEVKKPGSSVKVSCKASGGTFSSYAISWVRQAPGQGLEWMGRIIPILGIANYAQKFQGRVTITADKSTSTAYMELSSLRSEDTAVYYCARDSEYSSSWYSRGYYGMDVWGQGTTVTVSS
VL: not shown
notes: source: recombinant, purified
B22: C954 (antibody, V domains shown)
VH: QVQLVQSGAEVKKPGSSVKVSCKASGDTFTNYAFSWMRQAPGQGLEWMGRIIPILGIVKYSQKFQDRVRISADKSTSTAYMDLSSLRSEDTAMYYCARDSEFSTSWFSRGYHGMDVWGQGTTVTVSS
VL: DIVMTQSPLSLPVTPGEPASISCRSSQSLLHGDGYNYLDWYLQKPGQSPHLLIYLGSNRTSGVSDRFSGSGSGTDFTLKISRVEAEDVGVYYCMQALQTPPTFGGGTKVEIK
notes: source: recombinant, purified
B23: C960 (antibody, V domains shown)
VH: QVQLVESGGGVVQPGRSLTLSCTASGFTFNRFAMFWVRQAPGKGLEWVAVISFDGSYEHYAESVKGRFAIFRDNPKNTLYLQMNSLRAEDTAVYYCAKSPINYCANGVCYPDSWGQGTLVTVSS
VL: NFMLTQPHSVSESPGKTVTISCTGSSGSIANNYVQWYQQRPGSAPTTVIFEDTQRPSGVPDRFSGSIDSSSNSASLNISGLKPEDEADYYCQSFDVNSRWVFGGGTKLTVL
notes: source: recombinant, purified

Each binder was assayed against SARS-CoV-2 receptor binding domain (RBD) (SARS-CoV-2, GenBank MN985325.1 …, UniProt P0DTC2) (assay: BLI). Details: both partners purified.

Q: How did the Kd turn out when B1 was run?
A: The Kd was 35.1 nM.

Q: For B2, which Kd is on record?
A: Its Kd is 4.4 nM.

Q: B3 was tested. Which Kd did it give?
A: The Kd was 28.8 nM.

Q: How did the Kd turn out when B4 was run?
A: The Kd was 0.00513 nM.

Q: B5 was tested. Which Kd did it give?
A: The Kd was 10.8 nM.

Q: How did the Kd turn out when B6 was run?
A: Its Kd is 11.5 nM.

Q: For B7, which Kd is on record?
A: Its Kd is 2.76 nM.

Q: How did the Kd turn out when B8 was run?
A: Its Kd is 0.791 nM.

Q: With B9 as the binder, how does the Kd read?
A: Its Kd is 1.87 nM.

Q: For B10, which Kd is on record?
A: Its Kd is 0.318 nM.

Q: Which Kd does the source give for B11 here?
A: The Kd was 7240 nM.

Q: Which Kd does the source give for B12 here?
A: The Kd was 2.46 nM.

Q: For B13, which Kd is on record?
A: Its Kd is 1380 nM.

Q: How did the Kd turn out when B14 was run?
A: Its Kd is 1.95 nM.

Q: Which Kd does the source give for B15 here?
A: The Kd was 32.1 nM.

Q: For B16, which Kd is on record?
A: The Kd was 0.587 nM.

Q: With B17 as the binder, how does the Kd read?
A: The Kd was 208 nM.

Q: B18 was tested. Which Kd did it give?
A: Its Kd is 4.79 nM.

Q: B19 was tested. Which Kd did it give?
A: The Kd was 21.5 nM.

Q: Which Kd does the source give for B20 here?
A: Its Kd is 3.34 nM.

Q: With B21 as the binder, how does the Kd read?
A: The Kd was 620 nM.

Q: Which Kd does the source give for B22 here?
A: Its Kd is 1.47 nM.

Q: How did the Kd turn out when B23 was run?
A: Its Kd is 1.5 nM.
